Measurements published in patent publication EP4700044A1, “PROTEIN ANALOGUE AND USE THEREOF” (Shanghai Duomirui Biotechnology., Ltd., priority 2023, dated 2024).
Where a chain is given by its changes, count along the chain named. Blank lines part the entries; values can stand above or below the molecule they belong to.

Key:
[1] = target: T1, FGFR1c and the cofactor β-Klotho (Homo sapiens, UniProt P11362+Q86Z14); assay: dual-luciferase reporter gene assay in iLite FGF21 assay ready cells; format: cell-based
T1 construct: host or cells: iLite FGF21 assay ready cells (genetically engineered reporter gene cell line)
T1 sequence (P11362 22-822): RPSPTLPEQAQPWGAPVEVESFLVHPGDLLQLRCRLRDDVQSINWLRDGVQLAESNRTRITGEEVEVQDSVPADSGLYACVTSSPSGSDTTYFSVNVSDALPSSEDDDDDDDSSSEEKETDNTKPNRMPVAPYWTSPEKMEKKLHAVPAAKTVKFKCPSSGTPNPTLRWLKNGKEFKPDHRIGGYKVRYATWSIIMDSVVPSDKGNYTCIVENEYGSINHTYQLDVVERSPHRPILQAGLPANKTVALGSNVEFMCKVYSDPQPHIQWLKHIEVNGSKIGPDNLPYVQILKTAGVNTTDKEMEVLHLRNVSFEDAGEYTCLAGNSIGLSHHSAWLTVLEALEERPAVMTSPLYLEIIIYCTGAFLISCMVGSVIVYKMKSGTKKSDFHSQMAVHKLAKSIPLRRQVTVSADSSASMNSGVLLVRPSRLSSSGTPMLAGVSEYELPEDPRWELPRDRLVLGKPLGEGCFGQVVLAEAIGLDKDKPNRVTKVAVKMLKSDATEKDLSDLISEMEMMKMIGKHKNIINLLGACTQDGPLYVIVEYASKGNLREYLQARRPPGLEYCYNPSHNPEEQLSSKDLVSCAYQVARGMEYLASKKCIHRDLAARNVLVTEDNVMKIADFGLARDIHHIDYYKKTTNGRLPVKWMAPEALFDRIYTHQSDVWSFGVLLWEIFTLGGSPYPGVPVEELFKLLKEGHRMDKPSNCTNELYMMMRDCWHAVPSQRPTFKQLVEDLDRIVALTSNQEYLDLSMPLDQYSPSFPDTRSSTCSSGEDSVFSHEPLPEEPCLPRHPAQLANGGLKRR
T1 sequence (Q86Z14 whole entry): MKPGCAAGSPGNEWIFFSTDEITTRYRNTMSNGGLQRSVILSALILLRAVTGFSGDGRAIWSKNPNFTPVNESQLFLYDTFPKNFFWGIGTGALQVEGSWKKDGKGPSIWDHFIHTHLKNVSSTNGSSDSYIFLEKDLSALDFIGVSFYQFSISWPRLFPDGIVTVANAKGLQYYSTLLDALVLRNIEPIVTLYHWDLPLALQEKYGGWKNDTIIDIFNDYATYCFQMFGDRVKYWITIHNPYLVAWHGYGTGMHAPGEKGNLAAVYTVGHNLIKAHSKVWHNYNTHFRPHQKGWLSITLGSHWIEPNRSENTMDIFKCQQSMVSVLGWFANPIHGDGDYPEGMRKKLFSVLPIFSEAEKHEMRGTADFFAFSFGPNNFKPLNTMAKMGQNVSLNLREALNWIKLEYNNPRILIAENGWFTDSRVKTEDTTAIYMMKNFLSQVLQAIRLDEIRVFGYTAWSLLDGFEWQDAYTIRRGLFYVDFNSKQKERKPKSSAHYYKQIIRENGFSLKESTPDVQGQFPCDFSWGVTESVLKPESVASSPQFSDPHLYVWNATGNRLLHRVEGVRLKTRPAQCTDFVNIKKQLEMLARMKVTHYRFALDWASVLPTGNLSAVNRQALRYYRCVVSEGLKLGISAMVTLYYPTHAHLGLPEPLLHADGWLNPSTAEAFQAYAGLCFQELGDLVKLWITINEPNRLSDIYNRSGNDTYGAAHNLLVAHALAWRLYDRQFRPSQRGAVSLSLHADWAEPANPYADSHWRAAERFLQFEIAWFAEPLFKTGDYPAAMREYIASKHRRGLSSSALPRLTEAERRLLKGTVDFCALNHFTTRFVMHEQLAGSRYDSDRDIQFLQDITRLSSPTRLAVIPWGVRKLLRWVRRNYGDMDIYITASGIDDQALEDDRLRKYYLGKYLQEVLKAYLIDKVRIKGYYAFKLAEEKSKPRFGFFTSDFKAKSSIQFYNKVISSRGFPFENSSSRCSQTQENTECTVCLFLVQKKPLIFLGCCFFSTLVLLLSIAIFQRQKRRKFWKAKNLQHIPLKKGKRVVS
From the text: iLite FGF21 assay ready cells (purchased from SAVR) is a genetically engineered reporter gene cell line that responds to signals downstream to FGF21 agonism through the expression of firefly luciferase. The receptor FGFR1c and the cofactor β-Klotho were co-overexpressed on the surface of iLite FGF21 assay ready cells and have undergone genetic optimization to enhance sensitivity, such that FGF21 will cause an increase in luciferase expression in a dose-response manner. The luciferase activity detection kit was purchased from Promega (catalog number #E2980).
iLite FGF21 assay ready cells were cultured adherently in basal medium (DMEM Gluta Max, purchased from Gibco) containing 10% fetal bovine serum (FBS, purchased from Gibco) and 1% penicillin/streptomycin (purchased from Gibco). For the activity determination experiment, […] cells per well and test samples such as FGF21 mutant proteins and FGF21 conjugate molecules modified with albumin-binding agent were added to all-white 96-well culture plates (purchased from Corning), and the chemiluminescence values were detected in a microplate reader according to the instructions of the luciferase activity detection kit. Finally, the half-maximal effective concentration (EC50) values of the tested samples were obtained by means of four-parameter fitting.

[2] = test system: high-fat diet-induced db/db mice; assay: pharmacodynamic test in db/db mice induced by high-fat diet (NASH model); format: in vivo; conditions: subcutaneous injection once every three days, 6 weeks, liver sections, hematoxylin-eosin staining
From the text: Establishment of a db/db mouse model induced by high-fat diet: Male db/db mice, 8 weeks old, were adaptively fed with a standard diet for 2-3 days, after which all feed was replaced with 60% high-fat feed for rearing. After 3 weeks of high-fat feed feeding, the NASH model could be obtained. Administration: N = 6, subcutaneous injection of Vehicle and protein analogues (5 or 20 nmol/kg) was given once every three days, with an administration period of 6 weeks.
At the end of the administration, liver tissue sections were taken for hematoxylin-eosin staining to detect the effect of protein analogs on the non-alcoholic fatty liver disease activity score (NAS score) in high-fat diet-induced db/db mice.

[3] = pharmacokinetic test in minipigs; format: in vivo; conditions: 1 mg/kg, subcutaneous injection, plasma, human FGF21 ELISA
Method: (§1) The pharmacokinetic properties of protein analogs can be tested in mice or minpigs.
(§2) Minipig experiment (N = 3): The injection dose was 1 mg/kg, and the injection method was subcutaneous injection. The blood-collection time points for plasma samples were 0.083, 0.25, 0.5, 1, 2, 4, 6, 8, 12, 24, 48, 72, 96, 120, 144, 168, 192, 216, 240, 264, 288 h. The blood was collected into EDTA·2K-coated test tubes (which must be temporarily stored on ice) and centrifuged at 1200 × g for 10 minutes at 4°C. Subsequently, the plasma was transferred to Micronic tubes and stored at -20°C. The human FGF21 detection ELISA kit (CAT: RD191108200R) produced by Biovendor was used to monitor the blood drug concentration.

[4] = pharmacokinetic test in mice; format: in vivo; conditions: 1 mg/kg, subcutaneous injection, plasma, human FGF21 ELISA
Method: as §1
as §2, with “Mice” for “Minipig”, “0.08,” for “0.083,”, “and 72 hours.” for “72, 96, 120, 144, 168, 192, 216, 240, 264, 288 h.”, “(RD191108200R)” for “(CAT: RD191108200R)”

[5] = Example 13, four-parameter fitting
[6] = Example 6, four-parameter fitting

B1: Compound 12.1: Fatty acid-modified PAS-FGF21 dimer: PAS15FGF21 (SEQ ID NO: 13) modified by the side chain of Example 8.5 (conjugate)
chain: SPCASPAAPAPASPAAHPIPDSSPLLQFGGQVRQRYLYTDDAQQTEAHLEIREDGTVGGAADQSPESLLQLKALKPGVIQILGVKTSRFLCQRPDGALYGSLHFDPEACSFRERLLEDGYNVYQSEAHGLPLHLPGNKSPHRDPAPRGPARFLPLPGLPPAPPEPPGILAPQPPDVGSSDPLSMVGGSQGRSPSYES
modifications: dimer; fatty acid side chain of Example 8.5
EC50 [1, 5]: 90 pM
NAS score ([2]; 5 nmol/kg): 3.83 ± 0.98
NAS score ([2]; 20 nmol/kg): 3.33 ± 0.82

B2: Compound 12.4: Fatty acid-modified PAS-FGF21 dimer: PAS100FGF21 (SEQ ID NO: 16) modified by the side chain of Example 8.5 (conjugate)
chain: SPCASPAAPAPASPAAPAPSAPAAASAAAPAAASAAASAPSAASAAASPAAPSAPPAAASPAAPSAPPAAASPAAPAPASPAASAPSAPAAASPAAPAPASHPIPDSSPLLQFGGQVRQRYLYTDDAQQTEAHLEIREDGTVGGAADQSPESLLQLKALKPGVIQILGVKTSRFLCQRPDGALYGSLHFDPEACSFRERLLEDGYNVYQSEAHGLPLHLPGNKSPHRDPAPRGPARFLPLPGLPPAPPEPPGILAPQPPDVGSSDPLSMVGGSQGRSPSYES
modifications: dimer; fatty acid side chain of Example 8.5
EC50 [1, 5]: 110 pM
half-life [3]: 75.4 ± 9.4 h

B5: Compound 5.7: FGF21D46C mutant (SEQ NO: 7) modified by the albumin-binding agent of Example 2.2 (conjugate)
chain: HPIPDSSPLLQFGGQVRQRYLYTDDAQQTEAHLEIREDGTVGGAACQSPESLLQLKALKPGVIQILGVKTSRFLCQRPDGALYGSLHFDPEACSFRERLLEDGYNVYQSEAHGLPLHLPGNKSPHRDPAPRGPARFLPLPGLPPAPPEPPGILAPQPPDVGSSDPLSMVGGSQGRSPSYES
modifications: albumin-binding agent conjugated
EC50 [1, 6]: 1060 pM
half-life [4]: 15.9 h

B7: Compound 12.6: Fatty acid-modified PAS-FGF21 dimer: PAS200FGF21 (SEQ ID NO: 17) as printed, modified by the side chain of Example 8.6 (conjugate)
chain: SPCASPAAPAPASPAAPAPSAPAAASAAAPAAASAAASAPSAASAAASPAAPSAPPAAASPAAPSAPPAAASPAAPAPASPAASAPSAPAAASPAAPAPASPAAPAPSAPAAASAAAPAAASAAASAPSASAAASAAAPAAASAAASAPSAASSAASPAAPSAPPAAASPAAPSAPPAAASPAAPAPASPAAPAPSAPAAAHPIPDSSPLLQFGGQVRQRYLYTDDAQQTEAHLEIREDGTVGGAADQSPESLLQLKALKPGVIQILGVKTSRFLCQRPDGALYGSLHFDPEACSFRERLLEDGYNVYQSEAHGLPLHLPGNKSPHRDPAPRGPARFLPLPGLPPAPPEPPGILAPQPPDVGSSDPLSMVGGSQGRSPSYES
modifications: dimer; fatty acid side chain of Example 8.6
half-life [3]: 61.3 ± 1.1 h

Further lines, with some results ahead:

EC50 [1, 5]: 130 pM
B3: Compound 12.2: Fatty acid-modified PAS-FGF21 dimer: PAS30FGF21 (SEQ ID NO: 14) modified by the side chain of Example 8.5 (conjugate)
chain: SPCASPAAPAPASPAAPAPSAPAAASAAAPAHPIPDSSPLLQFGGQVRQRYLYTDDAQQTEAHLEIREDGTVGGAADQSPESLLQLKALKPGVIQILGVKTSRFLCQRPDGALYGSLHFDPEACSFRERLLEDGYNVYQSEAHGLPLHLPGNKSPHRDPAPRGPARFLPLPGLPPAPPEPPGILAPQPPDVGSSDPLSMVGGSQGRSPSYES
modifications: dimer; fatty acid side chain of Example 8.5
half-life [3]: 65.9 ± 3.8 h
NAS score ([2]; 5 nmol/kg): 4.33 ± 1.03
NAS score ([2]; 20 nmol/kg): 3.40 ± 1.14

EC50 [1, 5]: 110 pM
B4: Compound 12.3: Fatty acid-modified PAS-FGF21 dimer: PAS50FGF21 (SEQ ID NO: 15) modified by the side chain of Example 8.5 (conjugate)
chain: SPCASPAAPAPASPAAPAPSAPAAASAAAPAAASAAASAPSAASAAASPAAHPIPDSSPLLQFGGQVRQRYLYTDDAQQTEAHLEIREDGTVGGAADQSPESLLQLKALKPGVIQILGVKTSRFLCQRPDGALYGSLHFDPEACSFRERLLEDGYNVYQSEAHGLPLHLPGNKSPHRDPAPRGPARFLPLPGLPPAPPEPPGILAPQPPDVGSSDPLSMVGGSQGRSPSYES
modifications: dimer; fatty acid side chain of Example 8.5
NAS score ([2]; 5 nmol/kg): 4.33 ± 1.37
NAS score ([2]; 20 nmol/kg): 3.00 ± 0.89

EC50 [1, 6]: 470 pM
B6: Compound 5.15: FGF21H125C mutant (SEQ NO: 9) modified by the albumin-binding agent of Example 2.4 (conjugate)
chain: B5 chain with C46D, H125C
modifications: albumin-binding agent of Example 2.4
half-life [4]: 14.1 h
